Two molecules from patent US20200276322A1 (ADMINISTRATORS OF THE TULANE EDUCATIONAL FUND, published 2020) can be followed below.

The target of the assay is GFP1-10 protein. Briefly: cell-based or functional assay.

Square brackets hold non-standard residues; d marks the D form. Ends that are not written are not given here.

B1: Tat(D)-GFP-11 (peptide)
peptide: G[dR][dK][dK][dR][dR][dQ][dR][dR][dR][dP][dP][dQ]RDHMVLHEYVNAAGIT
In the case of B1, the “split GFP assay, GFP fluorescence against Tat-GFP-11, 40 µM, 37 °C and 22 °C” value is 2 fold.

B2: CPP-1(D)-GFP-11 (peptide)
peptide: [dR][dK][dK][dR][dW][dF][dR][dR][dR][dR][dP][dK][dW][dK][dK]RDHMVLHEYVNAAGIT
For B2, the “split GFP assay, GFP fluorescence over background, 10 µM, 22 °C” value turned out to be 2.2 fold and the “split GFP assay, GFP fluorescence over background, 10 µM, 37 °C” value is 2.1 fold.
